In assay [1] the target is T1, USP3 ZnF-UBD (Homo sapiens, UniProt Q9Y6I4).
T1 sequence (Q9Y6I4 1-131): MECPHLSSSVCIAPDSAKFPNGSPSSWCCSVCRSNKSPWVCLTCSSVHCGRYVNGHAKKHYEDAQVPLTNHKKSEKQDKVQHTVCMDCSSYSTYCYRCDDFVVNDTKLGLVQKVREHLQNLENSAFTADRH
Kind of assay: SPR binding to USP3 ZnF-UBD. (In SPR one partner is held on a chip, and binding of the other changes the refractive index at the surface.)

Assay [2] deals with E3 ligase CDC20. The settings on record: read-out: KD for CDC20; cited from earlier work.
In assay [3] the target is T2, HDAC6 ZnF-UBD (Homo sapiens, UniProt Q9UBN7).
T2 sequence (Q9UBN7 1109-1215): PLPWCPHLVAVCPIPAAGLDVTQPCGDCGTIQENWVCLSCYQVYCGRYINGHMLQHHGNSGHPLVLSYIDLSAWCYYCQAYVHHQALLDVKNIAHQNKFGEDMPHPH
Kind of assay: SPR binding to HDAC6 ZnF-UBD.

The target of assay [4] is T3, USP33 ZnF-UBD (Homo sapiens, UniProt Q8TEY7).
T3 sequence (Q8TEY7 29-134): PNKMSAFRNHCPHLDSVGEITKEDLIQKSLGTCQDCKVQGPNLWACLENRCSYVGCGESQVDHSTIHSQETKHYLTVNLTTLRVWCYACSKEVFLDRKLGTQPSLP
The experiment in a line: SPR binding to USP33 ZnF-UBD.

The target in assay [5] is USP16 ZnF-UBD (Homo sapiens, UniProt Q9Y5T5). Kind of assay: SPR binding to USP16 ZnF-UBD.
The target in assay [6] is T4, USP13 ZnF-UBD (Homo sapiens, UniProt Q92995).
T4 sequence (Q92995 183-307): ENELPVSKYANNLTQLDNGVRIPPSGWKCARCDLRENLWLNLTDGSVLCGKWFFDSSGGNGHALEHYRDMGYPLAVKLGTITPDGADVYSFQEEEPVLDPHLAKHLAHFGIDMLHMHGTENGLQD
Kind of assay: SPR binding to USP13 ZnF-UBD.

Assay [7] has as its target T5, USP39 ZnF-UBD (Homo sapiens, UniProt Q53GS9).
T5 sequence (Q53GS9 84-194): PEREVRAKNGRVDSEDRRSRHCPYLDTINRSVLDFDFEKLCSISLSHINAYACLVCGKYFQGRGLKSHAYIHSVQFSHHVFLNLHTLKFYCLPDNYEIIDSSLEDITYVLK
Kind of assay: SPR binding to USP39 ZnF-UBD.

Assay [8] concerns the target T6, BRAP ZnF-UBD (Homo sapiens, UniProt Q7Z569).
T6 sequence (Q7Z569 304-390): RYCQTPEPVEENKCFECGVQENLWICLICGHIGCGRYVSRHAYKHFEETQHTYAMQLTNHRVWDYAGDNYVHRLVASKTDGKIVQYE
Kind of assay: SPR binding to BRAP ZnF-UBD.

Assay [9] deals with T7, USP51 ZnF-UBD (Homo sapiens, UniProt Q70EK9).
T7 sequence (Q70EK9 176-305): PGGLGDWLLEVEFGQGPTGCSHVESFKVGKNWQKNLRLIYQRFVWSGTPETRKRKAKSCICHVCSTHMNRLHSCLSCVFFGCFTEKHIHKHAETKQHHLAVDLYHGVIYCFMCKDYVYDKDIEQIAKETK
Kind of assay: SPR binding to USP51 ZnF-UBD.

Assay [10] concerns the target T8, USP49 ZnF-UBD (Homo sapiens, UniProt Q70CQ1).
T8 sequence (Q70CQ1 1-115): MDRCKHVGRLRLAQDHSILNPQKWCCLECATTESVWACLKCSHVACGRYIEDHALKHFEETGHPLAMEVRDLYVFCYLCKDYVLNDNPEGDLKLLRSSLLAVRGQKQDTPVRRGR
The experiment in a line: SPR binding to USP49 ZnF-UBD.

The target in assay [11] is T9, USP5 ZnF-UBD (Homo sapiens, UniProt P45974).
T9 sequence (P45974 171-290): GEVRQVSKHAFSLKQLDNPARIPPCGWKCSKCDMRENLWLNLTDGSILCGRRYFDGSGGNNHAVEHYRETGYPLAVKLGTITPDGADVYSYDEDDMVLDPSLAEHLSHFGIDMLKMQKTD
Kind of assay: SPR binding to USP5 ZnF-UBD.

Assay [12] concerns the target USP20 ZnF-UBD (Homo sapiens, UniProt Q9Y2K6). Kind of assay: SPR binding to USP20 ZnF-UBD.

USP20 ZnF-UBD, sequence (Q9Y2K6 1-141): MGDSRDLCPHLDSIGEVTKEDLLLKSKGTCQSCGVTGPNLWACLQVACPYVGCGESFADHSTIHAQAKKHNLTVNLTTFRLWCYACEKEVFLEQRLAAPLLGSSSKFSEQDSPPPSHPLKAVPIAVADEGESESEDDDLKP
USP16 ZnF-UBD, sequence (Q9Y5T5 25-185): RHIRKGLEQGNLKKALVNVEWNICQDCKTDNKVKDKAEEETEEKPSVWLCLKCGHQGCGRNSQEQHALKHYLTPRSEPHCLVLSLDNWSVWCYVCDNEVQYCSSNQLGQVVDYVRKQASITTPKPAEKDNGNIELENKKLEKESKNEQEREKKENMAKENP

The compound `O=C(O)CNc1ncnc2ccccc12` [Compound 25] gave a Kd in assay [1] (KD (µM) USP3) of 191 µM.

On to `Cc1ncc([N+](=O)[O-])n1CCOC(=O)NC(Nc1ncccn1)C(Cl)(Cl)Cl` (stereo not shown) [Apcin], for which the Kd in assay [2] is 10 µM.

Consider “Ub-RGGdel: C-terminal RGG-deleted Ub construct, negative control in the SPR assay”, for which the “KD (µM) HDAC6” value in [3] is listed as “No binding”. In addition, in assay [4], the “KD (µM) USP33” value is recorded as “No binding”. Also, in [5], the “KD (µM) USP16” value was “No binding”. Further, the “KD (µM) USP13” value in assay [6] is recorded as “No binding”. Moreover, the “KD (µM) USP39” value in assay [7] is reported as “No binding”. For the same compound, in assay [8], the “KD (µM) BRAP” value was “No binding”. In assay [9], the “KD (µM) USP51” value is “No binding”. Besides, in [10], the “KD (µM) USP49” value is on record as “No binding”. Further, in assay [11], the “KD (µM) USP5” value is reported as “No binding”. Moreover, the “KD (µM) USP3” value in [1] is listed as “No binding”. Moreover, the “KD (µM) USP20” value in assay [12] is “No binding”.

In general, Kd refers to the equilibrium constant for the complex coming apart.

The values are drawn from article PMC10785082 (ACS Omega, 2023).
